According to the supplement of paper PMC10567573:

B1: KCNAB2 (parent)
chain: SSIIHEIDSILGNKPYSKKDYRS

Variants of: B1
Test: protein stability index of a GFP-peptide fusion (GPS, HEK-293T) (PSI 1-6); higher = more stable
Settings: c terminus: native
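Further: lentivirally expressed fusions sorted by FACS into six bins by GFP to DsRed ratio, PSI derived from sequencing read proportions per bin multiplied by bin number.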

Protein stability index, by site and new letter:
L11: T 4.27; Y 3.4; A 3.9; P 4.19; S 4.36; W 2.63; M 4.04; V 3.69; F 3.07; D 4.72; R 4.13; C 3.86; Q 4.91; E 4.69; G 4.19; H 4.46; K 4.03; N 4; I 3.42
D8: S 2.45; R 2.84; G 2.41; H 2.06; Q 3.06; C 1.59; K 2.07; Y 2.14; E 2.16; P 2.77; A 2.06; T 2.25; V 2.57; N 2.69
G12: F 4.21; Y 2.97; S 3.51; M 3.77; W 2.6; R 2.73; E 3.69; N 3.18; C 2.82; A 2.61; K 3.38; P 3.86; I 2.62; Q 3.16; L 2.8; V 2.76; T 3.24; D 3.81
Y16: M 2.71; C 3.55; A 2.85; F 3.41; S 3.02; N 3.34; I 3.8; P 3.6; H 3.27; G 3.59; Q 3.14; E 4.12; D 3.65; L 3.22; T 3.78; K 2.48; R 2.22
N13: G 2.61; W 2.38; S 2.59; L 2.47; T 2.97; F 2.68; P 2.54; E 2.82; Y 1.79; H 3; R 3.1; A 2.14; I 2.51; Q 2.63; M 2.56; V 2.59; C 2.25
K14: N 3.22; Q 3.1; V 2.94; G 2.69; L 2.77; I 2.63; H 2.32; D 3.31; R 3.09; F 1.99; W 1.7; M 2.9; T 2.89; P 3; S 3.49; Y 2.32; A 2.62; C 2.55; E 3.24
S9: V 2.53; Y 2.24; E 3.66; D 2.89; A 2.48; T 3.41; R 2.58; N 2.94; G 3.66; P 3.81; I 2.08; Q 3.19; W 2.9; K 3.54; M 2.2; H 2.8; L 2.38; F 1.75
I7: T 4.7; N 4.63; R 3.86; S 4.38; Y 4.53; P 4.47; Q 4.42
I10: R 4.3; L 3.12; A 4.13; Y 3; P 4.38; K 4.87; T 3.89; N 4.38; S 3.68; W 1.96; E 3.45; H 4.15; V 3.67; M 3.32; C 3.79; D 4.05; G 4.32; F 2.32; Q 4.47
P15: G 3.36; M 3.28; I 3.18; N 3.39; E 3.18; R 2.98; A 3.54; S 3.42; F 2.32; V 2.71; T 3.33; Y 2.63; H 2.63; D 3.27; W 2.44; C 3.14; K 3.36; L 2.84; Q 2.8
